Data on 3 compounds can be found in PMC9971032, “Structure and mechanism of a tripartite ATP-independent periplasmic TRAP transporter” (Nature Communications, 2023).

One test concerns the target T1, SiaP (Photobacterium profundum, UniProt Q6LPV9).
T1 construct: gene SMB20295; native signal peptide (residues 1-22) removed, apparently untagged (pET30deltaSE, ion-exchange and hydrophobic purification), E. coli BL21(DE3)
Nature of the test: isothermal titration calorimetry. Format: binding. The note with it: 50 mM Tris-HCl pH 8.0, 150 mM NaCl, 25 °C; single-site fit. The text has this:
isothermal titration calorimetry on SiaP | We confirmed that SiaP binds sialic acid with nanomolar affinity
(In general: In ITC the heat of successive injections is recorded.)

For test [1], the target named is SiaQM complex with SiaM R292A (Photobacterium profundum).
For test [2], the target named is SiaQM transporter complex from Photobacterium profundum (Photobacterium profundum).

As to `CC(=O)N[C@H]1[C@H]([C@H](O)[C@H](O)CO)OC(O)(C(=O)O)C[C@@H]1O` (stereo partly drawn) [Neu5Ac], the Kd on SiaP came to 561 nM.

For “SiaP (substrate-binding P-subunit of the sialic acid TRAP transporter from Photobacterium profundum) (natural protein)”, in test [1], the reduction of [3H]-Neu5Ac transport activity in proteoliposomes against wildtype SiaPQM stood at 87 % reduction.

As to SiaP D59A (natural protein), the reduction of [3H]-Neu5Ac transport activity in proteoliposomes against wildtype SiaPQM in test [2] turned out to be 77 % reduction.

As usually defined, the Kd is the constant that tells how readily two partners part at equilibrium. Read a low Kd as a tighter complex.
